Reference: patent US20240132563A1 (BRIGHT PEAK THERAPEUTICS, published 2024)
Positions of bridges follow the written chain, without caps; N, C: chain ends. Non-standard residues stand in square brackets, D forms with d. Chains are numbered I, II in the order given. Ygp = tyrosine with amino-capped PEG8; Yn3 = tyrosine with azide-capped PEG9; hSer = N[C@@H](CCO)C(=O)O; Nle = CCCC[C@H](N)C(=O)O

T1: IL-18R on HEK-Blue IL18R reporter cells (UniProt Q13478 19-541; O95256 20-599, limits assumed)
T1 sequence (looked up) 1: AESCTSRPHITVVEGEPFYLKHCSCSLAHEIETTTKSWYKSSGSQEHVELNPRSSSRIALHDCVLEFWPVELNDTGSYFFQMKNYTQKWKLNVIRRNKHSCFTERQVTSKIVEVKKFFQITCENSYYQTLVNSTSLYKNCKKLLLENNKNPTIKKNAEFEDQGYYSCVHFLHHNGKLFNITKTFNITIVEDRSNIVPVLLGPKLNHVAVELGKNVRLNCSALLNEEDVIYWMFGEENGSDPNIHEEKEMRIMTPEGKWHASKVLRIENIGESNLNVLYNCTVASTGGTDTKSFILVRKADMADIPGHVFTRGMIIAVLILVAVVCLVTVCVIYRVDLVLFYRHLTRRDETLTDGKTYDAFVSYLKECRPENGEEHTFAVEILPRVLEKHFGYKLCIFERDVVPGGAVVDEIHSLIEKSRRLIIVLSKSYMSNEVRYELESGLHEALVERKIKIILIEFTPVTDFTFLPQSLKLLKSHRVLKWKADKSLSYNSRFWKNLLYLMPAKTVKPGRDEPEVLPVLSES
T1 sequence (looked up) 2: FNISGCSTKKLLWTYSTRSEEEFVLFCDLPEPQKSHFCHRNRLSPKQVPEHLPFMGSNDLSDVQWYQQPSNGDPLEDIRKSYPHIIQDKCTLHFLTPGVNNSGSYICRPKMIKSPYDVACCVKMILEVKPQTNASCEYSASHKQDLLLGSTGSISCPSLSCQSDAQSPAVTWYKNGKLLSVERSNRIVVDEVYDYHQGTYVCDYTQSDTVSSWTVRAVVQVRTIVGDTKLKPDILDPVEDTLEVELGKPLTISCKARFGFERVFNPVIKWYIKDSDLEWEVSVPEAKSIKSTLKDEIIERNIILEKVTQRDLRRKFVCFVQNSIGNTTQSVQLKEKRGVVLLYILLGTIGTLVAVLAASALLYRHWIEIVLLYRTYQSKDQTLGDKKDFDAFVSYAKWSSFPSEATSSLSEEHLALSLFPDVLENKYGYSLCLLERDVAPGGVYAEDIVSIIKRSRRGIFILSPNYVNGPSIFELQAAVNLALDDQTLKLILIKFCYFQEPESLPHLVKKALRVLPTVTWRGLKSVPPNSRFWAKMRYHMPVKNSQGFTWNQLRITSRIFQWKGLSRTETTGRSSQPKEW

T2: IL-2Rβγ on HEK-Blue IL2Rβγ reporter cells (UniProt P14784 27-551; P31785 23-369)
T2 sequence (looked up) 1: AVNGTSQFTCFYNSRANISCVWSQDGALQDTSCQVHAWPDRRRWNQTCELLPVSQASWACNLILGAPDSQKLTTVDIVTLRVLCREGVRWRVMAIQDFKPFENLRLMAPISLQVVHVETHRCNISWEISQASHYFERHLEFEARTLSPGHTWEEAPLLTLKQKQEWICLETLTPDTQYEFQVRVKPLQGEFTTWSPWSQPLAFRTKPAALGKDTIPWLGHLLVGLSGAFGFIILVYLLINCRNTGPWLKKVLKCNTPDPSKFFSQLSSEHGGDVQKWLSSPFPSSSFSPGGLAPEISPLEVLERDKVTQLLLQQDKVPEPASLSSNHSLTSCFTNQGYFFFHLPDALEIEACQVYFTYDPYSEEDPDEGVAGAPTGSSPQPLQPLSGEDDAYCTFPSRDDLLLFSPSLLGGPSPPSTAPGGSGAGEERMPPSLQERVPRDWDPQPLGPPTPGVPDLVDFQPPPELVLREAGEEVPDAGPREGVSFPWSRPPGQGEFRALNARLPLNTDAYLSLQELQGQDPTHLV
T2 sequence (looked up) 2: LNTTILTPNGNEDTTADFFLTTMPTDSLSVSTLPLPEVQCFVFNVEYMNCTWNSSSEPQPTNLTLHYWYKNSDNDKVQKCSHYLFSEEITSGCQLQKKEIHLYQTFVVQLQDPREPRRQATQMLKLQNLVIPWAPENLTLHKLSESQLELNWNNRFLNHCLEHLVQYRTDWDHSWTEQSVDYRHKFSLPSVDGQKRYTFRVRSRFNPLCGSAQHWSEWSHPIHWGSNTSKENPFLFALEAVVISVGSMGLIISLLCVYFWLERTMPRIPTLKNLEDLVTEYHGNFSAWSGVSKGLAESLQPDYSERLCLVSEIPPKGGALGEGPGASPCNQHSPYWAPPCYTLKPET

T3: IL-2Rβ (CD122), avi-tagged (UniProt P14784 27-239, limits assumed)
T3 construct: BLI ligand printed as 'CD122 (avi)'; also called IL-2 receptor beta subunit
T3 sequence (looked up): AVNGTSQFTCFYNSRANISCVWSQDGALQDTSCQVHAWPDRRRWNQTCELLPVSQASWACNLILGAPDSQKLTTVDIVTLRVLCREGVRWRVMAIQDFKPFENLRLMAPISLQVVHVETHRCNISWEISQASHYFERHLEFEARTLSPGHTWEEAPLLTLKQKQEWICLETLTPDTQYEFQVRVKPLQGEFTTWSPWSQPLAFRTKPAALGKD

T4: CD218a (IL-18 receptor alpha subunit), avi-tagged (UniProt Q13478 19-329, limits assumed)
T4 construct: BLI ligand printed as 'CD218a (avi)'; also called CD218a (avi); IL-18Rα
T4 sequence (looked up): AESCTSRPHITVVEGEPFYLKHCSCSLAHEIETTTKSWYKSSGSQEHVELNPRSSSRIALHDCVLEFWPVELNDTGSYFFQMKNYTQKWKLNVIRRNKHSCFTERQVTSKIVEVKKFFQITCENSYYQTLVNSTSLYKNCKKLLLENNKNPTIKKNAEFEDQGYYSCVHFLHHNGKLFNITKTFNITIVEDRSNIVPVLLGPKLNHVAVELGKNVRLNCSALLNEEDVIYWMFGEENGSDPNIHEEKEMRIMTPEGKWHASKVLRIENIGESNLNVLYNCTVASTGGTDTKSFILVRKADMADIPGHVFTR


Experiments:
[1] = target: T1, IL-18R on HEK-Blue IL18R reporter cells; test: cell-based or functional assay
[2] = target: T2, IL-2Rβγ on HEK-Blue IL2Rβγ reporter …; test: cell-based or functional assay
[3] = target: T3, IL-2Rβ (CD122), avi-tagged; test: BLI; ligand CD122 (avi)
[4] = target: T4, CD218a (IL-18 receptor alpha subunit), …; test: BLI; ligand CD218a (avi)

EC50, HEK-Blue IL18R reporter assay [1]	EC50, HEK-Blue IL2Rβγ reporter assay [2]	Kd [3]	koff [3]	kon [3]	Kd [4]	koff [4]	kon [4]	Binder
0.1 pM	0.007 nM	151 nM	0.0842 s⁻¹	559000 M⁻¹ s⁻¹	25 nM	0.0405 s⁻¹	1.62e+06 M⁻¹ s⁻¹	Bifunctional cytokine Composition 3 (IL-18 SEQ ID NO: 30, linker 006, IL-2 SEQ ID NO: 300) (other, linker I:68-II:42 via linker 006 (SulfoDBCO-PEG24-Maleimide) (inferred); ends not checked, Two cytokines joined by a chemical (non-peptide) linker) chain 1: YFGKLKSKLSIIRNLNDQVLFIDQGNRPLFEDMTDSDARDNAPRTIFIISMYADSQPRGMAVAISVKCEKISTLSAENKIISFKEMNPPDNIKDTKSDIIFFQRSVPGHDNKMQFESSSYEGYFLAAEKERDLFKLILKKEDELGDRSIMFTVQNED chain 2: APTSSSTKKTQLQLEHLLLDLQ[Nle]ILNGINNYKNPKLTR[Nle]L[hSer][Yn3]KF[Ygp][Nle]PKKATELKHLQCLEEELKPLEEVL[hSer]LAQSKNFHLRPRDLISNINVIVLELKGSETTF[hSer]CEYADETATIVEFLNRWITFSQSIISTLT
	0.004 nM	206 nM	0.102 s⁻¹	493000 M⁻¹ s⁻¹				IL-2 polypeptide of SEQ ID NO: 300 (ligand, ends and bridges not checked, Synthetic modified IL-2) APTSSSTKKTQLQLEHLLLDLQ[Nle]ILNGINNYKNPKLTR[Nle]L[hSer][Yn3]KF[Ygp][Nle]PKKATELKHLQCLEEELKPLEEVL[hSer]LAQSKNFHLRPRDLISNINVIVLELKGSETTF[hSer]CEYADETATIVEFLNRWITFSQSIISTLT
0.067 pM					26.1 nM	0.0567 s⁻¹	2.17e+06 M⁻¹ s⁻¹	IL-18 polypeptide of SEQ ID NO: 30 (E6K, V11I, C38A, K53A, T63A, C76A, C127A) (ligand, also called C086) YFGKLKSKLSIIRNLNDQVLFIDQGNRPLFEDMTDSDARDNAPRTIFIISMYADSQPRGMAVAISVKCEKISTLSAENKIISFKEMNPPDNIKDTKSDIIFFQRSVPGHDNKMQFESSSYEGYFLAAEKERDLFKLILKKEDELGDRSIMFTVQNED
1.48 pM	0.05 nM	148 nM	0.0863 s⁻¹	585000 M⁻¹ s⁻¹	66.4 nM	0.0708 s⁻¹	1.07e+06 M⁻¹ s⁻¹	Bifunctional cytokine Composition 4 (IL-18 SEQ ID NO: 30, linker 004, IL-2 SEQ ID NO: 300) (other, linker I:68-II:42 via linker 004 (SulfoDBCO-Maleimide) (inferred); ends not checked, Two cytokines joined by a chemical (non-peptide) linker) chain 1: YFGKLKSKLSIIRNLNDQVLFIDQGNRPLFEDMTDSDARDNAPRTIFIISMYADSQPRGMAVAISVKCEKISTLSAENKIISFKEMNPPDNIKDTKSDIIFFQRSVPGHDNKMQFESSSYEGYFLAAEKERDLFKLILKKEDELGDRSIMFTVQNED chain 2: APTSSSTKKTQLQLEHLLLDLQ[Nle]ILNGINNYKNPKLTR[Nle]L[hSer][Yn3]KF[Ygp][Nle]PKKATELKHLQCLEEELKPLEEVL[hSer]LAQSKNFHLRPRDLISNINVIVLELKGSETTF[hSer]CEYADETATIVEFLNRWITFSQSIISTLT
